We go through three molecules from paper PMC7293033.

What is called koff is the first-order rate constant of dissociation. A high value points to a short-lived complex.

What all share (test): SPR
For assay [1], the target named is T1, His-API5 (apoptosis inhibitor 5, residues 1-504, isoform 2), wild type.
T1 chain: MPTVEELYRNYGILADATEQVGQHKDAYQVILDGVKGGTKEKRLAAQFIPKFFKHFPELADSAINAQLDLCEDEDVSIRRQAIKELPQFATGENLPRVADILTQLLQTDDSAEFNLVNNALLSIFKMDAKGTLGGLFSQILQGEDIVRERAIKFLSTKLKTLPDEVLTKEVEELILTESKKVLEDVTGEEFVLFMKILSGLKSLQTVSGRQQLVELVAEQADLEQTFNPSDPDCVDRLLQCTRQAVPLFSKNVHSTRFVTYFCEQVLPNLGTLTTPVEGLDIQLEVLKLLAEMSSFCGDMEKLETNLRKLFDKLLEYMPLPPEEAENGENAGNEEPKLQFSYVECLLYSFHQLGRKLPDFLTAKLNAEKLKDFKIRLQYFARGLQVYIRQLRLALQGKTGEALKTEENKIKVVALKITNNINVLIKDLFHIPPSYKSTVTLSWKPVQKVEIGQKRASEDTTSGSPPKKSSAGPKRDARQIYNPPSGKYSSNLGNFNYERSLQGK
The settings on record: chain shown with the change; concentration series 0.13, 0.25, 0.50, 1.0, 2.0, 4.0, 8.0, 16 µM.

Assay [2] has as its target His-FGF2, LMW FGF2 (residues 135-288, C211S/C229S), P09038. The note with it: chain shown with the change; concentration series 0.031, 0.063, 0.13, 0.25, 0.50, 1.0, 2.0, 4.0, 8.0, 16 µM.
Assay [3] concerns the target T2, His-FGF2 Mut (C211S/C229S/R262A/T263A/K271A), P09038.
T2 chain: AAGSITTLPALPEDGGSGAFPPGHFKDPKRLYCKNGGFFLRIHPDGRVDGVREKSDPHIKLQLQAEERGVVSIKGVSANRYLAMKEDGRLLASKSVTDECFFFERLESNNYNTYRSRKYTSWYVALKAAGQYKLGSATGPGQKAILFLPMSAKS
The note with it: chain shown with the change; concentration series 0.25, 0.50, 1.0, 2.0, 4.0, 8.0, 16, 32, 64 µM.

B1: His-FGF2, LMW FGF2 (residues 135-288, C211S/C229S), P09038 R262A; T263A; K271A (protein)
chain: AAGSITTLPALPEDGGSGAFPPGHFKDPKRLYCKNGGFFLRIHPDGRVDGVREKSDPHIKLQLQAEERGVVSIKGVSANRYLAMKEDGRLLASKSVTDECFFFERLESNNYNTYRSRKYTSWYVALKAAGQYKLGSATGPGQKAILFLPMSAKS
B1 came in with a koff in assay [1] of 0.00251 s⁻¹.

B2: His-API5 (apoptosis inhibitor 5, residues 1-504, isoform 2), wild type E184A; D185A; E190A (protein)
chain: MPTVEELYRNYGILADATEQVGQHKDAYQVILDGVKGGTKEKRLAAQFIPKFFKHFPELADSAINAQLDLCEDEDVSIRRQAIKELPQFATGENLPRVADILTQLLQTDDSAEFNLVNNALLSIFKMDAKGTLGGLFSQILQGEDIVRERAIKFLSTKLKTLPDEVLTKEVEELILTESKKVLAAVTGEAFVLFMKILSGLKSLQTVSGRQQLVELVAEQADLEQTFNPSDPDCVDRLLQCTRQAVPLFSKNVHSTRFVTYFCEQVLPNLGTLTTPVEGLDIQLEVLKLLAEMSSFCGDMEKLETNLRKLFDKLLEYMPLPPEEAENGENAGNEEPKLQFSYVECLLYSFHQLGRKLPDFLTAKLNAEKLKDFKIRLQYFARGLQVYIRQLRLALQGKTGEALKTEENKIKVVALKITNNINVLIKDLFHIPPSYKSTVTLSWKPVQKVEIGQKRASEDTTSGSPPKKSSAGPKRDARQIYNPPSGKYSSNLGNFNYERSLQGK
For B2, in assay [2], the koff was 0.0094 s⁻¹.

B3: m1; m2 API5: E184A; D185A; E190A; FGF2: R262A; T263A; K271A (protein)
chain: MPTVEELYRNYGILADATEQVGQHKDAYQVILDGVKGGTKEKRLAAQFIPKFFKHFPELADSAINAQLDLCEDEDVSIRRQAIKELPQFATGENLPRVADILTQLLQTDDSAEFNLVNNALLSIFKMDAKGTLGGLFSQILQGEDIVRERAIKFLSTKLKTLPDEVLTKEVEELILTESKKVLAAVTGEAFVLFMKILSGLKSLQTVSGRQQLVELVAEQADLEQTFNPSDPDCVDRLLQCTRQAVPLFSKNVHSTRFVTYFCEQVLPNLGTLTTPVEGLDIQLEVLKLLAEMSSFCGDMEKLETNLRKLFDKLLEYMPLPPEEAENGENAGNEEPKLQFSYVECLLYSFHQLGRKLPDFLTAKLNAEKLKDFKIRLQYFARGLQVYIRQLRLALQGKTGEALKTEENKIKVVALKITNNINVLIKDLFHIPPSYKSTVTLSWKPVQKVEIGQKRASEDTTSGSPPKKSSAGPKRDARQIYNPPSGKYSSNLGNFNYERSLQGK
For the molecule B3, in assay [3], the off-rate (koff) turned out to be 0.00328 s⁻¹ and the other: t1/2 (half-life of complex) was found to be 211 s.
